Assay results as given in patent publication US20040127682A1.

Key:
[1] = target: human CD3 (CD3 epsilon of the T-cell receptor complex) on Jurkat cells (human) (UniProt P07766); assay: competition with 125I-UCHT1 tracer on Jurkat cells; competitor at 100 nM
[2] = target: human CD3 (CD3 epsilon of the T-cell receptor complex) on Jurkat cells (human) (UniProt P07766); assay: competition with 125I-UCHT1 tracer on Jurkat cells; competitor at 1 nM

UniProt P07766, sequence (P07766 23-207, one chain of several): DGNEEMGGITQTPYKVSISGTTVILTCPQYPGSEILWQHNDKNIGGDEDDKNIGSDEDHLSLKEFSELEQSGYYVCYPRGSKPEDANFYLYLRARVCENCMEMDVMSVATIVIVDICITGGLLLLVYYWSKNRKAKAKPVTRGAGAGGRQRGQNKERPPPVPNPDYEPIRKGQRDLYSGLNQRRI

% of 125I-UCHT1 bound to cells [1]: 0%
% of 125I-UCHT1 bound to cells [2]: 80%
Substance: scUCHT1
